Data from patent US20050208482A1, “Tat-based immunomodulatory compositions and methods for their discovery and use” (priority 2004, published 2005).

B1: Tat: conventional immunosuppressive HIV-1 trans-activator of transcription protein, recombinant (SEQ ID NO. 2) (protein)
chain: MEPVDPRLEPWKHPGSQPKTACTTCYCKKCCFHCQVCFTKKALGISYGRKKRRQRRRAPEDSQTHQVSPPKQPAPQFRGDPTGPKESKKKVERETETHPVD
modifications: Human immunodeficiency virus type 1

Columns and labels:
[1] = system: monocytes committed to the dendritic cell (DC) lineage; experiment: Tat induction of CD86 on monocytes committed to the DC lineage (FACScan); assay type: cell-based, Human; settings: committed DCs cultured overnight; Tat 50 nM, LPS 100 ng/mL; Control MFI 9
Procedure: An additional embodiment of the present invention is that Tat induces monocytes committed to the dendritic cell (DC) lineage to enlarge into activated, CD86+DC APCs (FIG. 1). Human monocytes enriched from PBMCs by Percoll density gradient separation and adherance to anti-CD14 coated magnetic beads (Dynabeads M-450, Dynal Biotech) were committed to differentiate into DCs through five days of culture in GM-CSF (100 ng/mL) and IL-4 (100 ng/mL). Committed DCs were cultured overnight either in medium alone (Control), LPS (100 ng/mL), or Tat (50 nM), after which they were stained with an anti-CD86 antibody (BD Pharmingen) and analyzed by FACScan for CD86 induction (left panel) or generalized activation (right panel, enlargement into box R2, shown for Tat-stimulated cells). The MFIs for CD86 expression are 9 (Control), 30 (LPS), and 187 (Tat), CD86 being a specific determinant of DC activation.

[2] = system: Human PBMCs; assay type: cell-based
[3] = system: antibody response to p24; experiment: Suppression of humoral immune response to HIV-1 p24 in immunized mice (ELISA); assay type: in vivo; settings: 5 μg p24 + 5 μg Tat in complete Freund's adjuvant s.c.
Procedure: Tat suppresses the antigen-specific humoral immune response to HIV-1 p24 (FIG. 4). At week 0, mice (4 in each group) were immunized with 5 μg recombinant p24 protein (Chiron, Emeryville, Calif.) and either 5 μg recombinant Tat protein (PT) or 5 μg recombinant ox-Tat* protein (Ag) mixed in 100 μL complete Freund's adjuvant and administered subcutaneously in the flank. Following immunization, sera were collected every other week for 10 weeks and assayed for a specific antibody response to p24 by commercially available ELISA (Abbott Laboratories, Abbott Park, Ill.). […] This response was maintained for at least 6 weeks. The antibody titers at 6 weeks are approximately ten times greater than at week 2 due to maturation of the immune response.

[4] = system: T cells; experiment: T cell activation by Tat; assay type: cell-based; settings: 50 nM Tat
[5] = system: CD4+T cells; experiment: Direct apoptosis of CD4+ T cells by Tat; assay type: cell-based
[6] = system: Human monocytes; experiment: Tat activation of monocytes/macrophages, Fas ligand (FasL) induction by flow cytometry; assay type: cell-based
Procedure: Tat activation of monocytes is dose-dependent and saturatable (FIG. 3). Human monocytes were cultured in increasing concentrations of recombinant Tat for six days at which time they were assayed for Fas ligand (FasL) induction as a measure of activation by using flow cytometry (FACScan, Becton Dickinson) to quantitate the intensity of staining (mean fluorescence index (MFI)) with an anti-Fas ligand monoclonal antibody (Nok 1, BD Pharmingen).

Molecule	MFI for CD86 expression [1]	proliferation (stimulation index) relative to antigen treatment alone [2] [%]	reversal of Tat suppression, proliferation as % of control ([2]; with further addition of anti-IL-10 and anti-IL-6 antibodies to the cultures)	duration for which suppression of p24 antibody response was maintained [3]	p24 antibody titer at 2 weeks ([3]; compared with ox-Tat* control)	T cell activation [4]	concentration required to initiate direct apoptosis of CD4+T cells [5]	concentration of Tat that triggers the effect on the macrophages ([6]; FasL-inducing macrophage effect) [pM]	plateau stimulatory concentration for APCs ([6]; six days culture, FasL MFI, higher concentrations did not increase MFI) [nM]
lipopolysaccharide [LPS, reference compound]	30								
B1	187	141	> 95 % of control	at least 6 weeks	completely suppressed	could not be activated	approximately 500 nM	500	50
